Assay results: US20060040325A1

Assays:
[1] = target: FcγRIIIA (soluble receptor used as analyte in the BIAcore runs) (human) (UniProt P08637); experiment: SPR (BIAcore 3000), IgG amine-coupled to CM5, soluble FcγRIIIA injected; Scatchard plot of Req; Run 1
[2] = target: FcγRIIIA (soluble receptor used as analyte in the BIAcore runs) (human) (UniProt P08637); experiment: SPR (BIAcore 3000), IgG amine-coupled to CM5, soluble FcγRIIIA injected; steady-state isotherm; Run 2
[3] = target: FcγRIIB-streptavidin fusion protein (tetramer) (human; Streptomyces avidinii) (UniProt P31994); experiment: ELISA: antibody at varied concentration captured on protein A/G, FcγRIIB-streptavidin, biotin-HRP, OD at 450 nm
Sequence of FcγRIIB-streptavidin fusion protein (tetramer) (human; Streptomyces avidinii) (P31994 43-217 limits assumed): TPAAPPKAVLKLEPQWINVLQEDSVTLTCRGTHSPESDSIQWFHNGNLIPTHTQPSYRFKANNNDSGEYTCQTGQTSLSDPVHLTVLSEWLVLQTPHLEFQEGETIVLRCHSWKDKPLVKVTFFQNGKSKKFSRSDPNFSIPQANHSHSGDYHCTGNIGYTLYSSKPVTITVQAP

[4] = target: FcγRIIIA (soluble receptor used as analyte in the BIAcore runs) (human) (UniProt P08637); experiment: SPR (BIAcore 3000), IgG amine-coupled to CM5, soluble FcγRIIIA injected; steady-state isotherm; Run 1
[5] = target: FcγRIIIA (soluble receptor used as analyte in the BIAcore runs) (human) (UniProt P08637); experiment: SPR (BIAcore 3000), IgG amine-coupled to CM5, soluble FcγRIIIA injected; Scatchard plot of Req; Run 2

Sequence of FcγRIIIA (soluble receptor used as analyte in the BIAcore runs) (human) (P08637 17-208): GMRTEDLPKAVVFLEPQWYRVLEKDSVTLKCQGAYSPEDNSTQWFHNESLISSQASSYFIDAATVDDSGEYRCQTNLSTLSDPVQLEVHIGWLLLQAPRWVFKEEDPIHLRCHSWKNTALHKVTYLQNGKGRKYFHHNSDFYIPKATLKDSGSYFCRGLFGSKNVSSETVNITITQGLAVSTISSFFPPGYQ

Row | Substance | Kd [1] [nM] | Kd [2] [nM] | EC50 (read off the curve) [3] [µg/mL] | Kd [4] [nM] | Kd [5] [nM]
1 | Vitaxin® (wild type, full length IgG1) (antibody) | 3260 | 8900 | 0.3 | 3470 | 7600
2 | Vitaxin®-3M (Vitaxin® Fc variant S239D/A330L/I332E, IgG1) (antibody) |  | 114 |  |  | 
3 | Vitaxin®-1M (Vitaxin® Fc variant I332E, IgG1) (antibody) | 458 | 1280 | 0.3 | 458 | 1220
